How the values were obtained:
[1] = biological target: T1, C10orf54 (antigen of the KD values in Table 42) (human, UniProt Q9H7M9 33-311, limits assumed); experiment: method and antigen form not stated
T1 sequence: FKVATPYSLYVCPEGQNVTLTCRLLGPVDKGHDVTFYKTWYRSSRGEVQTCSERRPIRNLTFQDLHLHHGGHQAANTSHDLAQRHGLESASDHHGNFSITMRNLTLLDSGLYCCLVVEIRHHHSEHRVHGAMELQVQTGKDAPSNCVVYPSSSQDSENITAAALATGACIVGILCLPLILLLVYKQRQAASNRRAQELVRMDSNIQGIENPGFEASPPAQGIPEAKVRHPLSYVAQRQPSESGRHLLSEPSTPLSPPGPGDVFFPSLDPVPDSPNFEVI

[2] = biological target: T2, full length cynomolgus monkey C10orf54 (construct CC4) (cynomolgus monkey, UniProt Q9H7M9 33-311 (human entry)); experiment: flow cytometry, transfected 293t cells, 2 ug/ml; stain = MFI >=20-fold over isotype control
T2 construct: also called C10orf54 Construct 4
T2 chain: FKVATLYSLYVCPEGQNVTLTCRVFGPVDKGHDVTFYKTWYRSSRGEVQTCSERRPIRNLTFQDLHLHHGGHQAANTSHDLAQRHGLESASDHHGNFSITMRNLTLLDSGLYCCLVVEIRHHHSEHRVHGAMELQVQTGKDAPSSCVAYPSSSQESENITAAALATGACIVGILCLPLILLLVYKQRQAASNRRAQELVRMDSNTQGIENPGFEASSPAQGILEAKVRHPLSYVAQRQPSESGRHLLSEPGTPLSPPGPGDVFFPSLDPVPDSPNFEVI
Protocol: (§1) To investigate epitope diversity of the anti-human C10orf54 antibodies, 293t cells were transfected with 1 of 10 different C10orf54 expression constructs that co-express a fluorescent marker. Two days after transfection, cells were stripped from the tissue culture plate, stained with 2 μg/ml anti-human C10orf54 antibody , washed, stained with anti-mouse IgG-Fc Alexa Fluor 647 polyclonal antibody, washed, and stained with the viability dye 4′,6-Diamidino-2-Phenylindole, Dihydrochloride. Upon acquisition of 10,000 live events on a flow cytometer, live cells marked with the fluorescent marker were analyzed for the degree of staining by the anti-human C10orf54 antibody. When the median fluorescence intensity fold-change relative to an isotype control antibody was at least 20-fold, the antibody was considered to stain the C10orf54 expression construct in question.

[3] = biological target: T3, chimeric C10orf54: human IgV with mouse STALK (construct CC5) (human/mouse chimera); experiment: as above
T3 construct: also called C10orf54 Construct 5; hsIGVmmSTALK
T3 chain: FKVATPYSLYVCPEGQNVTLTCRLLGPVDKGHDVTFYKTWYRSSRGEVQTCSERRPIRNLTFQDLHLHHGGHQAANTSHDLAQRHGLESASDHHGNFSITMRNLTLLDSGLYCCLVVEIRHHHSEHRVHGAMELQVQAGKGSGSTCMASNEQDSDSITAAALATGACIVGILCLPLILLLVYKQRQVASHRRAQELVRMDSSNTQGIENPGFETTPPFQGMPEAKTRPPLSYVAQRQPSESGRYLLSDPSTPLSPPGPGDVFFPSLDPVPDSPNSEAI
Protocol: as §1

[4] = biological target: T4, chimeric C10orf54: first half of IgV mouse and remainder (including loop) human (construct CC8) (human/mouse chimera, UniProt Q9H7M9 33-311); experiment: as above
T4 construct: also called C10orf54 Construct 8; mmabChsC10
T4 chain: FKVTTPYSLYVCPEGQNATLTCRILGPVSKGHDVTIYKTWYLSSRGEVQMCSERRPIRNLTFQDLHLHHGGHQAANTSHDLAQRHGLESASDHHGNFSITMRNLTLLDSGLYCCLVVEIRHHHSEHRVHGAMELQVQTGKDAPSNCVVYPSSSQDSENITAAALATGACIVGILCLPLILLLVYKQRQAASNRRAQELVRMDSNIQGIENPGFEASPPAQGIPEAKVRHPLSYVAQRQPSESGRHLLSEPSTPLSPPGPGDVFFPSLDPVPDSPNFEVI
Protocol: as §1

[5] = biological target: T5, chimeric C10orf54: mouse with human loop (construct CC10) (human/mouse chimera, UniProt Q9D659 33-308 (mouse entry)); experiment: as above
T5 construct: also called C10orf54 Construct 10; mmC10hsLOOP
T5 chain: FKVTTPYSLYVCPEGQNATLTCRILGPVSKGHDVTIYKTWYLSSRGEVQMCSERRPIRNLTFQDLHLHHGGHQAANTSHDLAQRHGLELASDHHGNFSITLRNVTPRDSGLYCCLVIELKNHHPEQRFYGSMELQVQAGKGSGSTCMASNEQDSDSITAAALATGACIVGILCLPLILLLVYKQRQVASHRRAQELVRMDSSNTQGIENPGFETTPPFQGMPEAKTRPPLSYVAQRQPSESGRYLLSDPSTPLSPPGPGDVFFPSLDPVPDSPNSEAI
Protocol: as §1

B1: murine monoclonal antibody 53A (antibody, V domains shown)
VH: EVQLQQSGPELVKPGASVKMSCKASGYTFTSYFMHWVKQKPGQGLEWIGYIYPYNDGTKYNEKFKGKATLTSDKSSSTAYMELSSLTSEDSAVYYCARFDYDTLRYWGQGTTLTVSS
VL: DVVLTQTPLSLPVNIGDQASISCKSTKSLLNSDGFTYLDWYLQKPGQSPQLLIYLVSNRFSGVPDRFSGSGSGTDFTLKISRVEAEDLGVYYCFQSNYFPWTFGGGTKLEIK
notes: Mouse hybridoma antibody
[1]
  Kd: 0.321 nM
[2]
  binding result: binds
[3]
  binding result: binds
[4]
  binding result: binds

B2: murine monoclonal antibody 259A (antibody, V domains shown)
VH: EVQLQQSGPELVKPGASVKMSCKASGYTFTSYFMHWVKQKPGQGLEWIGYIYPYNDGTKYNEKFKGKATLTSDKSSSTAYMDLSSLTSEDSAVYYCARFDYDTLRYWGQGTTLTVSS
VL: DVVLTQTPLSLPVNIGDQASISCKSTKSLLNSDGFTYLDWYLQKPGQSPQLLIYLISNRFSGVPDRFSGSGSGTDFTLKISRVEAEDLGVYYCFQSNYFPWTFGGGTKLEIK
notes: Mouse hybridoma antibody
[1]
  Kd: 0.266 nM
[2]
  binding result: binds
[3]
  binding result: binds
[4]
  binding result: binds

B3: murine monoclonal antibody 5B (antibody, V domains shown)
VH: QVQLQQSGAELVRPGVSVKISCKGSGYTFTDYGMHWVKQSHAKSLEWIGIIDTYYGDATYNQKFKGKATMTVDKSSSTAYMELARLTSEDSAIYYCARRAGNAMDYWGQGTSVTVSS
VL: NIVMTQTPKFLLVSAGDRVTITCKASQSVSNDVAWYQQKPGQSPKLLIYYASNRYTGVPDRFTGSGYGTDFTFTISTVQAEDLAVYFCQQDYSSPRTFGGGTKLEIK
notes: Mouse hybridoma antibody
[1]
  Kd: 0.974 nM
[2]
  binding result: binds
[3]
  binding result: binds
[4]
  binding result: binds
[5]
  binding result: binds

B4: murine monoclonal antibody 46A (antibody, V domains shown)
VH: QVQLQQAGGELVRPGVSVKISCKGSGYTFTDYGMHWVKQSHAKSLEWIGIINTYYGDATYNQKFKGKATMTVDKSSSTAYMELARLTSEDSAIYYCARRAGTAMDYWGQGTSVTVSS
VL: SIVMTQTPKFLLVSAGDRVTITCKASQSVSNDVAWYQQKPGQSPKLLIYYASNRYTGVPDRFTGSGYGTDFTFTISTVQAEDLAVYFCQQDYGSPRTFGGGTKLEIK
notes: Mouse hybridoma antibody
[1]
  Kd: 1.88 nM
[2]
  binding result: binds
[4]
  binding result: binds

B5: murine monoclonal antibody 97A (antibody, V domains shown)
VH: QVQLQQSGAELVRPGVSVKISCKGSGYTFTDYGMHWVKQSHAKSLEWIGVIDTYYGDASNNQKFKGKATMTVDKSSSTAYMELARLTSEDSAIYYCARRAGNAMDYWGQGTSVTVSS
VL: SIVMTQTPKFLLVSAGDRVAITCKASQSVSNDVAWYQQKPGQSPKLLIYYASNRYTGVPDRFTGSGYGTDFTFTISTVQAEDLAVYFCQQDYGSPRTFGGGTKLEIK
notes: Mouse hybridoma antibody
[1]
  Kd: 1.99 nM

B6: murine monoclonal antibody 208A (antibody, V domains shown)
VH: QVQLQQSGAELVRPGVSVKISCKGSGYTFTDYGMHWVKQSHAKSLEWIGVIDTYYGDAGYNQKFKGKATMTVDKSSSTAYMELARLTSEDSAIYYCARRAGNAMDYWGQGTSVTVSS
VL: SIVMTQTPKFLLVSAGDRVTITCKASQSVSNDVAWYQQKPGQSPKLLIYYASNRYTGVPDRFTGSGYGTDFTFTISTVQAEDLAVYFCQQDYSSPRTFGGGTKLEIK
notes: Mouse hybridoma antibody
[1]
  Kd: 2.48 nM
[2]
  binding result: binds
[3]
  binding result: binds
[4]
  binding result: binds
[5]
  binding result: binds

B7: murine monoclonal antibody 128A (antibody, V domains shown)
VH: QVQLQQSGAELVRPGVSVKISCKGSGYTFTDYGMHWVKQSHAKSLEWIGLIDTYYGDATYNHKFKGKATMTVDKSSRTAYMELARLTSEDSAIYYCARRAGNAMDYWGQGTSVTASS
VL: NIAMTQTPKFLLVSAGDRVTITCKASQSVSNDIAWYQQKPGQSPRLLIYYASNRYTGVPDRFTGSGYGTDFTFTISTVQAEDLAVYFCQQDYSSPRTFGGGTKLEIK
notes: Mouse hybridoma antibody
[1]
  Kd: 0.635 nM
[2]
  binding result: binds
[3]
  binding result: binds
[4]
  binding result: binds
[5]
  binding result: binds

B8: murine monoclonal antibody 146C (antibody, V domains shown)
VH: QVQLQQSGAELVRPGVSVKISCKGSGYTFTDYGMHWVKQSHAKSLEWIGLIDTYYGDATYNHKFKGKATMTVDKSSRTAYMELARLTSEDSAIYYCARRAGNAMDYWGQGTSVTASS
VL: NIAMTQTPKFLLVSAGDRVTITCKASQSVSNDIAWYQQKPGQSPRLLIYYASNRYTGVPDRFTGSGYGTDFTFTISTVQAEDLAVYFCQQDYSSPRTFGGGTKLEIK
notes: Mouse hybridoma antibody
[2]
  binding result: binds
[3]
  binding result: binds
[4]
  binding result: binds
[5]
  binding result: binds

B9: murine monoclonal antibody 39A (antibody, V domains shown)
VH: QVQLQQSGAELMKPGASVKISCKATGYTFSSNWIEWVKQRPGHGLEWIGEILPGSGSTSYNEKFKGKATFTADTSSNTAYMQLSSLTSEDSAVYYCARWLLYYYAMDYWGQGTSVTVSS
VL: DVLMTQTPLSLPVSLGDPASISCRSSQSIVHNNGNTYLEWYLQKPGQSPKLLIYKVSNRFSGVPDRFSGSGSGTDFTLKISRVEAEDLGVYYCFQGSHVPYTFGGGTKLEIK
notes: Mouse hybridoma antibody
[1]
  Kd: 5.79 nM
[2]
  binding result: binds
[3]
  binding result: binds
[4]
  binding result: binds

B10: murine monoclonal antibody 76E1 (antibody, V domains shown)
VH: EVQLLQSGPELEKPGASVKISCKASGYSFTGYNMNWVKQSNGKSLEWIGNIDPYYDYTSYNLKFKDKATLTVDKSSSTAYMQLKSLTSEDSAVYYCATSTMITPFDYWGQGTTLTVSS
VL: DVLMTQTPLSLPVSLGDQASISCRSSQSIVHSNGNTYLEWYLQKPGQSPKLLIYKVSNRFSGVPDRFSGSGSGTDFTLKINRVEAEDLGVYYCFQGSHVPWTFGGGTKLEIK
notes: Mouse hybridoma antibody
[1]
  Kd: 10.1 nM
[2]
  binding result: binds
[3]
  binding result: binds
[4]
  binding result: binds

B11: murine monoclonal antibody 124A (antibody, V domains shown)
VH: QVQLQQSGAELMKPGASVKISCKATGYTFSSNWIEWVKQRPGHGLEWMGEILPGSGSTSYNEKFKGKATFTADTSSNTAYMQLSSLTSEDSAVYYCARWLLYYYAMDFWGQGTSVTVSS
VL: DVLMTQTPLSLPVSLGDQASISCRSSQSIVHNNGNTYLEWYLQKPGQSPKLLIYKVSNRFSGVPDRFSGSGSGTDFTLKISRVEAEDLGVYYCFQGSHVPYTFGGGTKLEIK
notes: Mouse hybridoma antibody
[1]
  Kd: 3.61 nM
[2]
  binding result: binds
[3]
  binding result: binds
[4]
  binding result: binds

B12: murine monoclonal antibody 215A (antibody, V domains shown)
VH: EVQLQQSGPELVKPGASMKISCKASGFSFTGYTMNWVKQSHGKNLEWIGLISPYNGGTSYNQKFKGKATLTVDKSSSTAYMELLSLTSEDSAVYYCARRAYGYAMDYWGQGTSVTVSS
VL: QIVLTQSPAIMSASPGEKVTMTCSASSSVSYMFWYQQKPGSSPRLLIYDTSNLASGVPLRFSGSGSGTSYSLTISRMEAEDAATYYCQQWSSYPFTFGSGTKLEIK
notes: Mouse hybridoma antibody
[1]
  Kd: 1.52 nM
[2]
  binding result: binds
[3]
  binding result: binds
[4]
  binding result: binds

— patent US20190177415A1 (PIERRE FABRE MEDICAMENT, published 2019)
